To fix the notation:
B3: LILRB2 (c-terminally biotinylated, BPS Bioscience #100335) (receptor, human, UniProt Q8N423 22-460, looked up)
chain: QTGTIPKPTLWAEPDSVITQGSPVTLSCQGSLEAQEYRLYREKKSASWITRIRPELVKNGQFHIPSITWEHTGRYGCQYYSRARWSELSDPLVLVMTGAYPKPTLSAQPSPVVTSGGRVTLQCESQVAFGGFILCKEGEDEHPQCLNSQPHARGSSRAIFSVGPVSPNRRWSHRCYGYDLNSPYVWSSPSDLLELLVPGVSKKPSLSVQPGPVMAPGESLTLQCVSDVGYDRFVLYKEGERDLRQLPGRQPQAGLSQANFTLGPVSRSYGGQYRCYGAHNLSSECSAPSDPLDILITGQIRGTPFISVQPGPTVASGENVTLLCQSWRQFHTFLLTKAGAADAPLRLRSIHEYPKYQAEFPMSPVTSAHAGTYRCYGSLNSDPYLLSHPSEPLELVVSGPSMGSSPPPTGPISTPGPEDQPLTPTGSDPQSGLGRHLGV
modifications: C-terminal biotin
notes: Bought biotinylated protein; also called human LILRB2; biotinylated LILRB2

The target of assay [1] is T1, HLA-B57(A46E/V97R).β2m (HLA-B57 A46E/V97R IgG4 fusion protein associated with β2m) (human; homo sapiens).
T1 construct: Complex secreted from CHO cells co-transfected with the fusion protein and β2m; also called iosH2; IosH2
Nature of the assay: BLI. (In general: BLI is a label-free optical method that tracks binding on a fibre tip over time.)

The target of assay [2] is B3. As to the kind of experiment: BLI, biotinylated LILRB2 sensors, ANGPTL7 titrated with or without prior incubation of the sensor with iosH2.
Assay [3] concerns the target T2, ANGPTL2 (R&D systems, 9795-AN) (UniProt Q9UKU9 23-493, limits assumed).
T2 construct: also called ANGTPL2
T2 sequence (looked up): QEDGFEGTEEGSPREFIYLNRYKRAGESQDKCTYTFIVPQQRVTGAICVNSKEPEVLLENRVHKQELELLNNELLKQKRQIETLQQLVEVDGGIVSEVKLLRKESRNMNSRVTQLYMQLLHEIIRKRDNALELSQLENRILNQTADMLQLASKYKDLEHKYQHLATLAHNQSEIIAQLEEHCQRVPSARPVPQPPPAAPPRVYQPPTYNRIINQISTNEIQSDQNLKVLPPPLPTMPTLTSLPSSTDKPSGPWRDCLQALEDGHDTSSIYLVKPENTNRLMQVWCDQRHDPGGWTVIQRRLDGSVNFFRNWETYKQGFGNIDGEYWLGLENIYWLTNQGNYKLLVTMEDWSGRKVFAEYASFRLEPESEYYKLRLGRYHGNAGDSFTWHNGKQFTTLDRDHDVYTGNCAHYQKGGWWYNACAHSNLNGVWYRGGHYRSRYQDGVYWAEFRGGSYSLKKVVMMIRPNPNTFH
As to the kind of experiment: BLI, biotinylated LILRB2 sensors, ANGPTL2 titrated with or without prior incubation of the sensor with iosH2.

B1: human LILRB1 (receptor, UniProt Q8NHL6 24-458, looked up)
chain: GHLPKPTLWAEPGSVITQGSPVTLRCQGGQETQEYRLYREKKTALWITRIPQELVKKGQFPIPSITWEHAGRYRCYYGSDTAGRSESSDPLELVVTGAYIKPTLSAQPSPVVNSGGNVILQCDSQVAFDGFSLCKEGEDEHPQCLNSQPHARGSSRAIFSVGPVSPSRRWWYRCYAYDSNSPYEWSLPSDLLELLVLGVSKKPSLSVQPGPIVAPEETLTLQCGSDAGYNRFVLYKDGERDFLQLAGAQPQAGLSQANFTLGPVSRSYGGQYRCYGAHNLSSEWSAPSDPLDILIAGQFYDRVSLSVQPGPTVASGENVTLLCQSQGWMQTFLLTKEGAADDPWRLRSTYQSQKYQAEFPMGPVTSAHAGTYRCYGSQSSKPYLLTHPSDPLELVVSGPSGGPSSPTTGPTSTSGPEDQPLTPTGSDPQSGLGRH
In the case of B1, the binding result in assay [1] is “binds”.

B2: ANGPTL7 (R&D systems, 914-AN) (ligand, UniProt O43827 27-346, looked up)
chain: QKLSKHKTPAQPQLKAANCCEEVKELKAQVANLSSLLSELNKKQERDWVSVVMQVMELESNSKRMESRLTDAESKYSEMNNQIDIMQLQAAQTVTQTSADAIYDCSSLYQKNYRISGVYKLPPDDFLGSPELEVFCDMETSGGGWTIIQRRKSGLVSFYRDWKQYKQGFGSIRGDFWLGNEHIHRLSRQPTRLRVEMEDWEGNLRYAEYSHFVLGNELNSYRLFLGNYTGNVGNDALQYHNNTAFSTKDKDNDNCLDKCAQLRKGGYWYNCCTDSNLNGVYYRLGEHNKHLDGITWYGWHGSTYSLKRVEMKIRPEDFKP
On to B2, for which the binding result in assay [2] is recorded as “binds”.
As for B3, in assay [3], the binding result is reported as “binds”.

These data come from US20240366718A1 (IMMUNOS THERAPEUTICS, published 2024).
